# According to a protein production outcome set (Wang et al. 2014):
# Experiment: label from the status in PepcDB records
row,Sequence,protein production
1,MKTHFVKLLTQPESAWVQIRSEEQRKPWQYLPHLLLWALVPALCLLIGVTQVGWSLVDAERVRLSLASAMQLALLLYLTALLGTVLMGGFIRWMSRPFEARPTLNQCVGFAAYTATPYFIAGISGLYPSRWLAVAALLVASAYASYLLLVGLPKFMYLNQERGRLYAASVWGVGLLVLVTILVSMILFWFNVLAPQYLRPLAAL,failed
2,MLGSIFTASAVVMILLGLGMLTVFTQRLVDQKIDIASSEIDRARVIVEEQITASGASTSVQARVNSARAALSSLGTSGGTETNAAYDPVVLVNNDDLVVSPEGYQIPERLRYFVSENQVSYQFSSIDQGDGSSYQALIIGTPTESDIPNLQVYLVFSMESDESSLALMRGLLSAALLIVVVLLVGIAWLATQQVTAPVRSASRIAERFAQGKLRERMVVEGEDEMARLAVSFNAMAESLSAQITKLEEYGNLQRQFTSDVSHELRTPLTTVRMAADLIADSEDELSPGARRASQLMNRELDRFESLLSDLLEISRHDAGVAELSTALHDVRIPVRSALEQVQHLATELDVELLVNLPEEAINIQGDSRRIERIIRNLLANAIDHSKGLPVELKVADNVDAVAIVVIDHGVGLKPGQDELVFNRFWRADPSRVRHSGGTGLGLAISREDAMLHGGNLDAAGTIGVGSIFRLVLPKEPHGNYREAPIPLIAPETPWEGEQQ,failed
3,MRAERGPPKQTISLPVALRKDRDMSEIAPQNRRIRPAAIVVLFLTIALTGCLLALGTWQVQRLFWKLDLIERVDVRAHAEPVDAPAASDWPALGNPSDYEYRRVKLTGTLLNDREVQVYTVTDLGPGYWVMTPLRRDDGSSIIVNRGFVPSDRRDPSSRTGGEPTGNVEIVGLMRAPETGGLFLRTNDPANGRWYSRNIPQITQASGLSDVAPFYVDADATPNPGGLPVGGKTMLTFPNNHLSYAVTWYILAAMVVAAGWYVLRNLNAPKSKRDAD,failed
4,MTTKPRLCTALLTLAIAVSASAPVLAQSMAGGSAKNRYANQTKLDPYPPEGGWQGLANLLEAAKPGVDTRLDPTPSQITDRIEELLNRGANEEALSLIERREAAIKGQRGADVQLMFQHARALAALGRADEAIAVYSDMTTQFPELPEPWNNLAALYASRGELERAQDSLQMALRANPDYAAARANLGDIQLMMALRTYRQEEARGVPGMKARVEEIESLLKDKQPK,failed
5,MKNLIFIATTFITTISLTNIAQAANQEHIRQLLATKQCQNCDLSGAGLVMADLTGANLSGANLAGANLSRANLSGADLRGANLSGAGLFGVNLSEAKLGGANLAGADLRSTFLSNAEFTGAYLQGTNFQGALGIPLQIATPDEFYALGVAEAQKGNQQQAINYFNQAIASKPEYAGAYLARGIARYQLFDRQGAAQDAQTAEKLFTSQDNATGIQTAQAFIKELQTPYTEKLSAGKPSFFDFLGSLGSVLLQFLPF,failed
6,MIDWPLAELLPHAGDMILIDQVLAFDEEQIRTRLEVRPGGLFNRPDGSLPAWVGVELMAQSVAAYAGCRARQQGLPVELGFLLGTRKFECNVEHFPLGSTLEIHALRSLEDDNGMGVFECHLSGPGITASARLNVFRPPQAADYLHETPASSTGTPS,failed
7,SFKPVMQKFLHDHVDLQVSALYALQVHCYNSNFPKGMLLRFFVHFYDMEIIEEEAFLAWKEDITQEFPGKGKALFQVNQ,failed
8,MQQLQNVIETAFERRADITPANVDTVTREAITHVIDLLDTGALRVAEKIDGQWVTHQWLKKAVLLSFRINDNQVMEGAETRYYDKVPMKFAGYDEARFQREGFRVVPPATVRKGAFIARNTVLMPSYVNIGAFVDEGTMVDTWATVGSCAQIGKNVHLSGGVGIGGVLEPLQANPTIIEDNCFVGARSEVVEGVIVEEGSVISMGVFIGQSTRIYDRETGEVHYGRVPAGSVVVSGNLPSKDGSYSLYCAVIVKKVDAKTRSKVGINELLRTID,not failed
9,TIAFIVNKNLLHGSEIPKSWADLKTGKYKVSIGDVSTAAQAANGVLAASFAMKGDESNIEPGLALFTDLAKQKRLSLANPTIQTIEKGEIEVGVVWDFNGLSYRTKMAKPDDYVVLIPSDGSVISGYTTIINKYAKHPNAAKLAREYTFSDAGQ,failed
10,MEVLLDVKERMSILKNFYDEVRVVDPINNIVFSDDFNLKINNKFNEKDCSLSNCYDVWGKKSMCSTCISKKAYLKNDTFIKLEYNKNHVFLVIASPIEFNENKYVVEILKDITNNGSIVDGSGEGNYLDLTMKKMGENLIKDYLTGVYNKRYIDQRFSKEAHRNLKESIPTTVIMTDIDSFKKVNDTYGHLVGDKILRDFAKVLNNNIRENSDWIGRYGGEEFIIVLNNTNLKNGVKVAEKLRKIIEKMSFDYGDLSLKITSSFGVCEVSEKEDPFDTIKNADEKLYMAKMTGRNKTVF,failed
11,MDKTDSIDIDKQVNTDELFGHPKGLYICFATELWERFSFYGMKYLLLLYLTKYHLFSDGEGLEVLGSYAGLVYTLPVIGGMLADRYLGMKKSVIFGGILLCLGHLLMAVEGHQAVQYAAGTILTSDLTLNNGAVLSAGTLLTETIKIQDLAALNVFYFALSLIVVGVGFLKPNISTIVGQLYSKDDPRRDSGFTIFYMGINLGSFAATIICVYLGETYGWRYGFGAAGIGMLFGLVTFTKGLKYLRGLAEPPDVAVLSEKVWGLISREYLIYLTAILSLSVFWLVIQHEPVVFAAQQVLLVVSGVGLIGYAALKGSREEFQQMLVLMVLIGSTIVFWALFEQAAGSMTLFADRVVERNIAGIEITAGQFGALNAGFIIMLALPFAALWVWLEKFRLNPNIPIKFALGIIQAGLGFGVLVFGAQFPDEAGKISLWWLVLAYLIHTTGELCLSPVGLSAVTKLAIHRVVGLSMGVWFLATALSETLAMRLGKLAAIDTQGGELNSVSDNLIIYTQLFEFLMWIGIGTGVVVLLISPLLKRGMHGVR,failed
12,MSILDTLKTPVIVAPMAGGPSTPALVNAAAEAGSLGFLAGGVMPLEQLKQELSEVKGVFGVNLFRPQTDAPKPSDIDELAGLLSSAFRQFGLDEPTVPTPDLSNGWEAKFEAVLAAKPAVFSCTFGIFSAEEFARIKATGIEAWVTVTNPEDALAAQKAGANALVVQGPEAGGHRSTWSIEVEPDERDLKTLLAAVKQAGVYLPLIAAGGLSTSADVAAILEAGASAASCGSAFLLSDEAGTSSLNREILDAAPALGLESVSSRAFSGRYARGVETRFTRSNEGLPPLYPYLNPMITSLRKVAGSAGNWDYAYCLVGVGLESIAKGSAKQILESLTPSALG,failed
13,MASSTTSTVTDLSAALVMAPVPLADWLIILPIALCIGAGAVLMMMRHAIRHHAAVAIAALSLLVILNAALLWKVATQGPFTMVMGRWLPPFGIAFTADLTGALLSLAAAIVALAGAIHAGADIDASGRRYGFYPFLMLLMAGVTGAFLTGDLFNLYVWFEVLLISSFGLIVLGSTREQIDGALKYAILNLIGTTLFLITVGYLYAIFGTLNMADIALKATELRGTAPLMTLASLFALAFAMKAAAFPVNFWLPASYHTPRIVVSALFGGLLTKVGIYSLLRVMVMLFPVEREELSIVIAISAALTMVLGAMGALAQNDIRRMLGYIVISGIGYMMAGIAIGTPSGVSGAIFYALHSMVLMTALYLAAGHAARLGGGFSLTSLGDLYRQAPWFSALALALFFAGSGLPPFSGFWPKAVLVKSAIDIGAWWLAAAILVSGFIATIAFGRVFLLCFWRPVTTSAGQPALQPAARPPAPSVAPLVGLTLLVVFFGLFPESLLNLSQQAAAGLGNPQAYIQSVFPQGGKP,failed
14,MEKMYNVGKIVNTHGLIGEIRVIATTDFPEERFQVGNTVYLFEKNSKKPEKLIIRSHRKHKNFDLLMFEGLTGIHQVERMKEGVLKIKEAQLTDLEENEFYFHEIIGTVVTTDGEELGEITEILTPGANDVWVVKGADKKEKLIPYIADVVKDINTNDKKITIEVMEGLLDLEHHHHHH,failed
15,AGKQNEVELVAEKQLAFPLDEQTYYLSKSMFQFEENGKEYLHFENTQKSLYDIVIFDIENQQIAKRIPLHKTGPNGLPAVFGSRPSPDSQYILVAQNNISRLSSINSQGEIIRNYNFQTPEGRFTPLSFGSYYNAPAFIKDSCIFLRQEILKPDMKKEDWPRTHMFASQDLRTGEVKWIPIFYPPIFKEEYDNIAGGYGFSYDYNYKESRLVCGFFGYDSLMVTDDLKHIRWYNAKSRYLKSMKPKLGNSMEGINAIIKLNENPRYWHIMYDKYRNVYYRFAEMPYKLAPNESPYETPKGKEFSVIVLNADFEIIGETKFPGKKYFYKMSFVGREGLYISENNLENPQFDENKLVFTCFKIKNASPNK,not failed
16,MIFIKKPSLKALSCASILFALSGCVPPNQFGEDYSRDVCKTKRDELIALDNHFSSNMVAGGIIGTLAGAGLGAAAAAATNGDIITATLIGAAAGMAVGAGSAYWNELSKQHGEGELLLFSLLGDMRRDEEKVTKAQIALDNLMSCRRTEAAQVHADYRAKRISAQEAKTRMEAIRRRAEKDVSVAKDINKGVQDRRGSYEYAFEQSKKIKTKNKKDKKKIEKTYTSMDKYCGSYNTSVQVAETSLNTEFKADGFTSSYLIYPDSTPNTQISCR,failed
17,AIAASALEQFVNNVRQLSAQGQMTQLCELINKSGELLAKNLSHLDTVLGALDIQEHSLGVLAVLFVKFSMPNIPDFETLFSQVQLFISTCNGEHIRYATDTFAGLCHQLTNALVERKQPLRGISILKQAIDKMQMNTNQLTSVHADLCQLCLLAKCFKPAVPFLELDMMDICKENGAYDAKHFLCYYYYGGMIYTGLKNFERALYFFEQAITTPAMAVSHIMLEAYKKYILVSLILHGKVQQLPKYTSQIVGRFIKPLSNAYHELAQIYATNNPAELRALVNKHSETFTRDNNSGLVKQCLSSLYKKNIQRLTKTFLTLSLQDMASRVQLSGPQEAEKYVLHMIEDGEIYASINQKDGMVCFHDNPEKYNNPAMLHKIDQEML,not failed
18,MSEGNRSRSRLLPSLLGLLILLSGLALLAGGIKLASLGGSLYYLLAGIGLALSGLLLLLGKRAALGLYALVLFASTVWALWEVGLDWWQLVPRLALWFVFGLLLWLPWFRRPLLADGPAPLGTAALGVAVVLAGAAAVGSQFTNPGQIVGRIDRDSGMTSTAPAMPDGDWQAYGRTEFGDRYSPLKQITPANVGQLEEAWRIRTGDLPTADDPLELTNENTPLKVNGMLYACTAHSKVLALDPDTGAEIWRFDPQIQSPVGFKGFAHMTCRGVSYYDEEQYARSDVGAPPAALSEAGKAVAASCPRRLFLPTADARLIAINADNGKVCEDFGVKGAVDLTAGIGPFTPGGYYSTSPAAVTRNLVIIGGHVTDNESTNEPSGVIRAFDVHDGKLVWNWDSGNPDETEPLAPGKFYTRNSPNMWSLASVDEKLGQVYLPLGNQMPDQWGGNRTPGAEKFSAGLVALDLNTGKLRWNYQFTHHDLWDMDVGSQPTLLDLKTADGVKPALIAPTKQGSLYVLDRRDGTPIVPIREVPAPQGAVEGDHTAPTQARSDLNLLRPPLTERDMWGSSPFDQMLCRIQFRSLRYEGQYTPPSEQGSLIYPGNVGVFNWGGVSVDPVRQILFTSPNYMAFVSQMVPRDKVPSGSKREGETSGVQPNTGAPYAVIMHPFMSPIGLPCQAPSWGDVAGIDLTTAKVVWQHKNGTSRDNTPVPIGLTVGVPSMGGSITTAGGVAFLSGTLDQYLRAYDVKDGKQLWQARLPAGGQATPMSYTGKDGRQYVLIVAGGHGSFGTRMGDYIIAYALPRQ,failed
19,MSAGKIDVHGFEKETLFFKNIASGSKGNCTLIWDSTDLIVIDLGITMKKFRDSIKSLDLAGRSISLFISHEHSDHIGGVPTTSKYVDMDVYMRPALSGSFRRKTYEMDGSLVVGNFEIRAFEIPHDAADPVGFSVLWHNRKISVVSDLGKVTDRVIESIRNSDILAFESNHDVEMLRTGSYPEALKRRILSDHGHLSNEQSAEAISRVATDDMRIILTHLSQENNRPEIALNEVKSYLENRNVRYRSIETADQYTGSSLYTLER,failed
20,MKFVSIEKDEILIGNMAKLYCKVFEKTNFNEMIERMNRHIEYTGFKGIVAINDENEVVGFTYGYRSMEGQYYNQLMREALHLEQVDEWLQDCFEFVELAVHPQYQNEGLGTKLHNELLEGIPNRTSVLTTQINNEKARSLYERLDWVNVLEPFHPSKNDVPYVIMGKALKTKVN,failed
